For assay [1], the target named is biotinylated CRH (human and mouse). Nature of the assay: competitive ELISA, coated 1st mAb; competitor PR005660. Background: ELISA stands for enzyme-linked immunosorbent assay.
The target is the same in assay [2]. Briefly: competitive ELISA, coated 1st mAb; competitor PR006152.
For assay [3] the target is unchanged. Briefly: Octet in-tandem, row = 1st mAb; competitor (2nd mAb) PR302309-8. Background: Biolayer interferometry detects binding as a change in optical thickness at a sensor tip.
Assay [4] shares this target. Nature of the assay: competitive ELISA, coated 1st mAb; competitor PR301777.
Assay [5] has the same target. Briefly: competitive ELISA, coated 1st mAb; competitor PR004290.
Assay [6] shares this target. Nature of the assay: competitive ELISA, coated 1st mAb; competitor PR302055.
For assay [7] the target is unchanged. Nature of the assay: competitive ELISA, coated 1st mAb; competitor PR302069.
The target is the same in assay [8]. Nature of the assay: Octet in-tandem, row = 1st mAb; competitor (2nd mAb) PR006669.
For assay [9] the target is unchanged. Nature of the assay: competitive ELISA, coated 1st mAb; competitor PR302050.
The target is the same in assay [10]. Briefly: Octet in-tandem, row = 1st mAb; competitor (2nd mAb) PR303394.
The target is the same in assay [11]. Briefly: Octet in-tandem, row = 1st mAb; competitor (2nd mAb) PR301777.
The target is the same in assay [12]. Briefly: Octet in-tandem, row = 1st mAb; competitor (2nd mAb) PR302341-34.
The target is the same in assay [13]. Nature of the assay: competitive ELISA, coated 1st mAb; competitor PR006148.
Assay [14] shares this target. Briefly: Octet in-tandem, row = 1st mAb; competitor (2nd mAb) PR302334.
Assay [15] shares this target. Briefly: competitive ELISA, coated 1st mAb; competitor PR302064.
For assay [16] the target is unchanged. Briefly: competitive ELISA, coated 1st mAb; competitor hIgG1.
Assay [17] shares this target. Briefly: Octet in-tandem, row = 1st mAb; competitor (2nd mAb) PR005660.

biotinylated CRH (human and mouse), sequence (peptide, as listed by the source): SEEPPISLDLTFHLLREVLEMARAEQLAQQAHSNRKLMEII

On to hIgG1 (antibody), for which the % Inhibition in assay [1] came to 0%; in assay [2], 0%; in assay [3], 15%; in [4] it was 0%; in [5], 0%; in assay [6] it was 0%. Further, the % Inhibition was 0% in assay [7]; 9% in assay [8]; 0% in [9]; 10% in assay [10]; 9% in assay [11]; 12% in [12]. Besides, the % Inhibition is 0% in assay [13]; 8% in assay [14]; 0% in [15]; 0% in assay [16]; 12% in assay [17].

The % Inhibition is the percentage by which the read-out fell short of the control. Read a low % Inhibition as little suppression.

The values above are taken from patent publication US20260042834A1, “ANTI-CORTICOTROPIN-RELEASING HORMONE ANTIBODIES AND POLYCYSTIC OVARY SYNDROME” (HBM ALPHA THERAPEUTICS, INC., priority 2022, published 2026).
